Laboratory results taken from PMC6326841.
Positions count from the first letter of the chain named. Names may count otherwise.

B1: human ventricular (cardiac) myosin regulatory light chain, wild type (natural protein)
chain: MAPKKAKKRAGGANSNVFSMFEQTQIQEFKEAFTIMDQNRDGFIDKNDLRDTFAALGRVNVKNEEIDEMIKEAPGPINFTVFLTMFGEKLKGADPEETILNAFKVFDPEGKGVLKADYVREMLTTQAERFSKEEVDQMFAAFPPDVTGNLDYKNLVHIITHGEEKD
B2: human ventricular myosin regulatory light chain S15D-R58Q phosphomimic double mutant (natural protein)
chain: B1 chain with S15D, R58Q
B3: human ventricular myosin regulatory light chain R58Q mutant (natural protein)
chain: B1 chain with R58Q

How the values were obtained:
[1] = target: pyrene-labeled rabbit skeletal muscle F-actin (rabbit) (UniProt P68135); assay: stopped-flow fluorescence
[2] = target: pyrene-labeled rabbit skeletal muscle F-actin (rabbit) (UniProt P68135); assay: other fluorescence titration
[3] = target: RLC-depleted porcine cardiac myosin (pig (endogenous in porcine ventricular muscle)) (UniProt P79293); assay: reconstitution of RLC-depleted myosin, SDS-PAGE densitometry
[4] = target: RLC-depleted porcine cardiac myosin (pig (endogenous in porcine ventricular muscle)) (UniProt P79293); assay: reconstitution of RLC-depleted skinned muscle strips, SDS-PAGE densitometry

Molecule | kobs of actin-myosin dissociation at 10 μM MgATP [1] [s⁻¹] | kobs of actin-myosin dissociation at 25 μM MgATP [1] [s⁻¹] | kobs of actin-myosin dissociation at 40 μM MgATP [1] [s⁻¹] | kobs of actin-myosin dissociation at 80 μM MgATP [1] [s⁻¹] | kobs of actin-myosin dissociation at 150 μM MgATP [1] [s⁻¹] | kobs of actin-myosin dissociation at 250 μM MgATP [1] [s⁻¹] | Kd [2] [nM] | % RLC Present [3] [%] | % RLC Present [4] [%]
porcine cardiac myosin reconstituted with human cardiac R58Q RLC (from UniProt P79293 1-1935; P10916 1-166) (complex) | 7.26 | 15.1 | 23.6 | 45.6 | 69.2 | 107 | 13.3 | – | –
porcine cardiac myosin reconstituted with human cardiac S15D-R58Q RLC (from UniProt P79293 1-1935; P10916 1-166) (complex) | 7.29 | 14.7 | 25.3 | 41.5 | 74 | 111 | 3.53 | – | –
porcine cardiac myosin reconstituted with human cardiac WT RLC (from UniProt P79293 1-1935; P10916 1-166) (complex) | 8.25 | 15.7 | 27.3 | 48.9 | 82.2 | 107 | 2.13 | – | –
B1 | – | – | – | – | – | – | – | 87.2 | 61.3
B2 | – | – | – | – | – | – | – | 86.9 | 64.5
B3 | – | – | – | – | – | – | – | 75.7 | 54
